In IntAct's records for PubMed 17277084:

B1: Serine/threonine-protein kinase PBS1 (Arabidopsis thaliana (Mouse-ear cress)), Q9FE20 (parent)
chain: MGCFSCFDSSDDEKLNPVDESNHGQKKQSQPTVSNNISGLPSGGEKLSSKTNGGSKRELLLPRDGLGQIAAHTFAFRELAAATMNFHPDTFLGEGGFGRVYKGRLDSTGQVVAVKQLDRNGLQGNREFLVEVLMLSLLHHPNLVNLIGYCADGDQRLLVYEFMPLGSLEDHLHDLPPDKEALDWNMRMKIAAGAAKGLEFLHDKANPPVIYRDFKSSNILLDEGFHPKLSDFGLAKLGPTGDKSHVSTRVMGTYGYCAPEYAMTGQLTVKSDVYSFGVVFLELITGRKAIDSEMPHGEQNLVAWARPLFNDRRKFIKLADPRLKGRFPTRALYQALAVASMCIQEQAATRPLIADVVTALSYLANQAYDPSKDDSRRNRDERGARLITRNDDGGGSGSKFDLEGSEKEDSPRETARILNRDINRERAVAEAKMWGESLREKRRQSEQGTSESNSTG
partner: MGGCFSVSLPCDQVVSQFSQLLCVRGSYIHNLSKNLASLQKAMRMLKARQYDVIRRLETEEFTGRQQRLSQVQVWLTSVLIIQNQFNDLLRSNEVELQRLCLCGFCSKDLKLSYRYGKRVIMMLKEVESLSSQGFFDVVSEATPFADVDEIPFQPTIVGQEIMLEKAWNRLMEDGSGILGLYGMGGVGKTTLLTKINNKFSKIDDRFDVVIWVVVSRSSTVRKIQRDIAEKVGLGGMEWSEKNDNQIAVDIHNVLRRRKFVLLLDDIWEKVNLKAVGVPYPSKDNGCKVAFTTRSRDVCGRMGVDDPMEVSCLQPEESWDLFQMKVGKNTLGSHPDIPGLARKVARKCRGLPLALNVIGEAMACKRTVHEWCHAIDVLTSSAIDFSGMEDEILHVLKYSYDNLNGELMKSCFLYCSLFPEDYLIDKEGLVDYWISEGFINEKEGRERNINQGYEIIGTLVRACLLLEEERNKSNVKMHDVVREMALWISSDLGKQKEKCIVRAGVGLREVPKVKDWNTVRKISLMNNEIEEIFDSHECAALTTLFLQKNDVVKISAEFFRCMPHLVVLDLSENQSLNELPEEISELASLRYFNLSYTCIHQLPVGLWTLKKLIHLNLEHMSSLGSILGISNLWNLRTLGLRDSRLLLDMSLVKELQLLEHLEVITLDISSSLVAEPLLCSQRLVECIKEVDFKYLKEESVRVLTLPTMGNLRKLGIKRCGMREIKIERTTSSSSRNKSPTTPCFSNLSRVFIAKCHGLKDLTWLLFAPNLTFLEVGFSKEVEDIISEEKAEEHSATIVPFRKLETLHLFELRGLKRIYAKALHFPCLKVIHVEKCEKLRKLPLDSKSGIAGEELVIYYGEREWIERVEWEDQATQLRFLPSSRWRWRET

Variants of: B1
Details: with rps5_arath RPS5, O64973

Row | effect of a mutation on the interaction | Variant
1 | disrupting interaction strength | G252R
2 | disrupting interaction strength | K115N
